In patent US20230037911A1 (SHANGHAI HENLIUS BIOTECH, published 2023):
One block for each binder: values may come before it.

B3: human TIGIT stably expressed on cells (Jurkat; 293T) (receptor)
chain: MMTGTIETTGNISAEKGGSIILQCHLSSTTAQVTQVNWEQQDQLLAICNADLGWHISPSFKDRVAPGPGLGLTLQSLTVNDTGEYFCIYHTYPDGTYTGRIFLEVLESSVAEHGARFQIPLLGAMAATLVVICTAVIVVVALTRKKKALRIHSVEGDLRRKSAGQEEWSPSAPSPPGSCVQAEAAPAGLCGEQRGEDCAELHDYFNVLSYRSLGNCSFFTETG
notes: the expression vector's insert is not described further; also called h-TIGIT; human TIGIT transfected Jurkat cells

What was measured:
[1] = target: B3; assay: flow cytometry, whole cell binding on h-TIGIT transfected Jurkat cells; anti-human IgG Fc AlexaFluor488 secondary
Procedure: (§1) The binding affinities of the humanized bivalent antibodies to human TIGIT were determined by whole cell binding to h-TIGIT stably expressed on Jurkat cells. Briefly, antibodies were incubated with h-TIGIT transfected Jurkat cells (0.2×10⁶/well in 100 μl) for 30 min in FACS buffer. The cells were washed once, then incubated with anti-human IgG Fc AlexaFluor488 (1:500).

[2] = target: B3; assay: flow cytometry, whole cell binding on Jurkat cells stably expressing human TIGIT; Alexa Fluor 488 anti-human IgG Fc secondary
Source text: (§2) FIGS. 1A-1C depict whole cell binding of representative VHH bivalent antibodies to human TIGIT determined by flowcytometry assays. […] Y axis represents Mean Fluorescence Intensity of AlexaFlour 488. X axis represents antibody concentrations in nanomolar. […] FIG. 1C is a schematic of the structure of a TIGIT VHH bivalent antibody.
(§3) Jurkat cells stably expressing human TIGIT and NFAT reporter gene were established. Specifically, Jurkat cells were transfected with human TIGIT expression vector by electroporation, and cells stably expressing human TIGIT were selected by 1 μg/ml puromycin during cell culture. Representative antibody clones were incubated at different concentrations with h-TIGIT stably expressing Jurkat cells (0.2×10⁶/ml) in 100 μl/well in 96-well plate in FACS buffer (PBS with 1.5% FBS) for 30 min. After washing, Alexaflour 488 conjugated anti-human IgG Fc secondary antibody (Alexa Fluor® 488 AffiniPure Goat Anti-Human IgG, Fcγ fragment specific, Jackson labs, 1:500 dilution) was added and incubated for 30 min. After washing, mean fluorescence intensity was measured using CytoFlex (Beckman Coulter) by gating live cell population. Binding affinity was calculated using GraphPad Prism.

[3] = target: B3; assay: cell-based or functional assay
[4] = target: T1, recombinant human TIGIT extra cellular domain (ECD) protein (human, UniProt Q495A1 22-138); assay: ELISA, VHH in supernatant
T1 construct: Purchased protein; it begins with the signal peptide; also called h-TIGIT ECD; human TIGIT ECD
T1 sequence: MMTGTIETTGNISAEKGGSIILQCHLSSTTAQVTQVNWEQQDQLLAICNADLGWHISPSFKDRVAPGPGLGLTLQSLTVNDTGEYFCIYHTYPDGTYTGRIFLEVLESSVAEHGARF

[5] = target: T2, 1C12-EREW humanized bivalent antibody (human, UniProt P01857-1 104-330 = IgG part, limits assumed); assay: flow cytometry, whole cell binding on h-TIGIT transfected Jurkat cells; anti-human IgG Fc AlexaFluor488 secondary
T2 construct: domain: CH2 and CH3; Called humanized bivalent antibody; the Fc part is not restated; also called 1C12 (F-EREW)
Procedure: as §1

[6] = target: T3, 1C12-GLEW humanized bivalent antibody (human, UniProt P01857-1 104-330 = IgG part, limits assumed); assay: as above
T3 construct: domain: CH2 and CH3; Called humanized bivalent antibody; the Fc part is not restated; also called 1C12(F-GLEW)
Procedure: as §1

[7] = target: T4, 1G1-F-G-ERES humanized bivalent antibody (human, UniProt P01857-1 104-330 = IgG part, limits assumed); assay: as above
T4 construct: domain: CH2 and CH3; Called humanized bivalent antibody; the Fc part is not restated
Procedure: as §1

[8] = target: T5, 1C12-EREF humanized bivalent antibody (human, UniProt P01857-1 104-330 = IgG part, limits assumed); assay: as above
T5 construct: domain: CH2 and CH3; Called humanized bivalent antibody; the Fc part is not restated; also called 1C12 (F-EREF)
Procedure: as §1

[9] = target: T6, 1G1-F-A-ERES humanized bivalent antibody (human, UniProt P01857-1 104-330 = IgG part, limits assumed); assay: as above
T6 construct: domain: CH2 and CH3; Called humanized bivalent antibody; the Fc part is not restated
Procedure: as §1

[10] = target: T7, 2B10 bivalent VHH antibody (VHH with human CH2 and CH3) (human, UniProt P01857-1 104-330 = IgG part, limits assumed); assay: flow cytometry, whole cell binding on Jurkat cells stably expressing human TIGIT; Alexa Fluor 488 anti-human IgG Fc secondary
T7 construct: domain: CH2 and CH3
T7 sequence (P01857 other isoform, or with tags, fused parts or gaps limits assumed): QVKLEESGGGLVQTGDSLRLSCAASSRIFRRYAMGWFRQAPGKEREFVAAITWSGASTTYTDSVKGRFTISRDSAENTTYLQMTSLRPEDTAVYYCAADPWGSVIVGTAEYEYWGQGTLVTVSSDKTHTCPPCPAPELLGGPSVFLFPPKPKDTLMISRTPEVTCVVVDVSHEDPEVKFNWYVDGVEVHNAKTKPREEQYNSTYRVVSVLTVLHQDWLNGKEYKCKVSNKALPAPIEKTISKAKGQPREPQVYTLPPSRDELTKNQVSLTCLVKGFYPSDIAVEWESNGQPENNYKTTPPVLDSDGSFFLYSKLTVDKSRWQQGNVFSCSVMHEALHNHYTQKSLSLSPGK
Source text: as §2, §3

[11] = target: T8, 2B7 bivalent VHH antibody (VHH with human CH2 and CH3) (human, UniProt P01857-1 104-330 = IgG part, limits assumed); assay: as above
T8 construct: domain: CH2 and CH3; Expressed in ExpiCHO, Protein A purified
T8 sequence (P01857 other isoform, or with tags, fused parts or gaps limits assumed): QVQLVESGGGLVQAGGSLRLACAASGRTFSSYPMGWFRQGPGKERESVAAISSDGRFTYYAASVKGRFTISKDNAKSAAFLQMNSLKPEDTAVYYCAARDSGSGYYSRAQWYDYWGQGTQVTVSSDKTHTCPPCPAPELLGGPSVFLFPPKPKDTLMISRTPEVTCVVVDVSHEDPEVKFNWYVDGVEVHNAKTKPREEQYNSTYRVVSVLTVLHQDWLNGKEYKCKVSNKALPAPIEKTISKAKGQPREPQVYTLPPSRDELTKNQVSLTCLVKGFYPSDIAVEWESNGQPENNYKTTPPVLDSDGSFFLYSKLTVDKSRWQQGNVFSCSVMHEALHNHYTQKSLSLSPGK
Source text: as §2, §3

[12] = target: T9, 3G7 bivalent VHH antibody (VHH with human CH2 and CH3) (human, UniProt P01857-1 104-330 = IgG part, limits assumed); assay: as above
T9 construct: domain: CH2 and CH3
T9 sequence (P01857 other isoform, or with tags, fused parts or gaps limits assumed): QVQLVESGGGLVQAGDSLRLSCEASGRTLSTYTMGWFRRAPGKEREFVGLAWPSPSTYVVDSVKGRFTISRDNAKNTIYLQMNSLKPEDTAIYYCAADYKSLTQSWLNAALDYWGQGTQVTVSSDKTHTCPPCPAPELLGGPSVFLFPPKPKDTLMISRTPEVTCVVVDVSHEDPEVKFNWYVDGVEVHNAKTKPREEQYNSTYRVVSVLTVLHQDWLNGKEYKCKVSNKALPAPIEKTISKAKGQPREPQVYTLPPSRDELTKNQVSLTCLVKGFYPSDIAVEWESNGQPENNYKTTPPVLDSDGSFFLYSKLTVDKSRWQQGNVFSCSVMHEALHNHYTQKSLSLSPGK
Source text: as §2, §3

[13] = target: T10, 3G6 bivalent VHH antibody (VHH with human CH2 and CH3) (human, UniProt P01857-1 104-330 = IgG part, limits assumed); assay: as above
T10 construct: domain: CH2 and CH3
T10 sequence (P01857 other isoform, or with tags, fused parts or gaps limits assumed): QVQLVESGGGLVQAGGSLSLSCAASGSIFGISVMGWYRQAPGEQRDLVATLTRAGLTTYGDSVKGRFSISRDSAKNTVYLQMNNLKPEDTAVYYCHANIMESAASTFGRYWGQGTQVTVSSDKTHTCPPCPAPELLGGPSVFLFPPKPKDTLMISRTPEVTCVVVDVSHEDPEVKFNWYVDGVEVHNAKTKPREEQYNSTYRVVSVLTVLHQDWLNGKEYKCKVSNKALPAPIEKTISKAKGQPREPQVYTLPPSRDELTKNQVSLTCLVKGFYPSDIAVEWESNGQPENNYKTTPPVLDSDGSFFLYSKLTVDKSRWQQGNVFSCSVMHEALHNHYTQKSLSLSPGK
Source text: as §2, §3

[14] = target: T11, 15A5 bivalent VHH antibody (VHH with human CH2 and CH3) (human, UniProt P01857-1 104-330 = IgG part, limits assumed); assay: as above
T11 construct: domain: CH2 and CH3
T11 sequence (P01857 other isoform, or with tags, fused parts or gaps limits assumed): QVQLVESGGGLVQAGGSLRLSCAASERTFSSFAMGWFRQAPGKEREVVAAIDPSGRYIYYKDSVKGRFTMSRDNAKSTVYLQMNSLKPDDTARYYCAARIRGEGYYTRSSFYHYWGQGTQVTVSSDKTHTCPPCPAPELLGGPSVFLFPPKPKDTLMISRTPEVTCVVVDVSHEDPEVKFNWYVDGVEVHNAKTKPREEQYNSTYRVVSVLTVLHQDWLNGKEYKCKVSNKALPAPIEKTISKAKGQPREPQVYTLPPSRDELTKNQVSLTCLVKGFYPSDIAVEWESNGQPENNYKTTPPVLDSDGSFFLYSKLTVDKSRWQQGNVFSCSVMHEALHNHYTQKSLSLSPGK
Source text: as §2, §3

[15] = target: T12, 13H11 bivalent VHH antibody (VHH with human CH2 and CH3) (human, UniProt P01857-1 104-330 = IgG part, limits assumed); assay: as above
T12 construct: domain: CH2 and CH3
T12 sequence (P01857 other isoform, or with tags, fused parts or gaps limits assumed): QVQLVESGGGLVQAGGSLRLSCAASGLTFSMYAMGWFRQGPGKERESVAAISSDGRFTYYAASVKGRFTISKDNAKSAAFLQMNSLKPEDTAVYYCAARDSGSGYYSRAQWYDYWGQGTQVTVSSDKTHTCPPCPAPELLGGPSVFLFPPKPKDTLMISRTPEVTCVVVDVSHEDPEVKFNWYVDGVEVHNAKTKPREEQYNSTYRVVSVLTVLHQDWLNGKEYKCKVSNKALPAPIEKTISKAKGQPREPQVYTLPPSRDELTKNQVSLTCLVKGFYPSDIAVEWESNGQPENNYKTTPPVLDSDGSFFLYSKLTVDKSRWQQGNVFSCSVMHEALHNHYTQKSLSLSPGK
Source text: as §2, §3

[16] = target: T13, recombinant ECD of human FcγRIIIA (human, UniProt P08637 17-208); assay: Octet (ForteBio) biolayer interferometry; sensor loaded with recombinant ECD of human FcγRIIIA; antibody at 5 concentrations (not given)
T13 construct: extracellular domain
T13 sequence (P08637 17-208): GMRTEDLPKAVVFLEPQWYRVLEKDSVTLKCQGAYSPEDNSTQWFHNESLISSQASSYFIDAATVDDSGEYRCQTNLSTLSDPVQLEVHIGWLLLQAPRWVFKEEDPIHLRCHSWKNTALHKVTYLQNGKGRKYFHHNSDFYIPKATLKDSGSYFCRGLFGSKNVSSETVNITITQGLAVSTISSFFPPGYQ
Source text: (§4) Y axis represents association, dissociation & Rmax. X axis represents time in second.

[17] = target: T14, recombinant ECD of mouse FcγRIV (mouse, UniProt A0A0B4J1G0 21-203); assay: Octet (ForteBio) biolayer interferometry; sensor loaded with recombinant ECD of mouse FcγRIV; antibody at 5 concentrations (not given)
T14 sequence: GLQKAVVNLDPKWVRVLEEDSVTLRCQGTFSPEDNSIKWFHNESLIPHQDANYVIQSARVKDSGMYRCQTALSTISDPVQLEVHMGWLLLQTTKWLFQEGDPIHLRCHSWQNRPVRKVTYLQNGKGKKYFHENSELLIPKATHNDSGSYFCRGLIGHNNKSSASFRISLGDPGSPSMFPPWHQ
Source text: as §4

[18] = target: T15, recombinant ECD of human FcγRIIB (human, UniProt P31994 43-217); assay: Octet (ForteBio) biolayer interferometry; sensor loaded with recombinant ECD of human FcγRIIB; antibody at 5 concentrations (not given)
T15 construct: extracellular domain
T15 sequence (looked up): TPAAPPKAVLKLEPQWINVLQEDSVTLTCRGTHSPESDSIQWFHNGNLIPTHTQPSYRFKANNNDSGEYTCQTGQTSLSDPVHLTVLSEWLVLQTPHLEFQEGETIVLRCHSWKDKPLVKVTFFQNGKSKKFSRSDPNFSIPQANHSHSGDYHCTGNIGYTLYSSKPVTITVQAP
Source text: as §4

[19] = target: B3; assay: cell-based or functional assay; remark: listed apart in the source
[20] = target: human FcγRIIIA on NFAT reporter Jurkat cells (human, UniProt P08637 17-254); assay: cell-based or functional assay
Chain of human FcγRIIIA on NFAT reporter Jurkat cells (P08637 17-254): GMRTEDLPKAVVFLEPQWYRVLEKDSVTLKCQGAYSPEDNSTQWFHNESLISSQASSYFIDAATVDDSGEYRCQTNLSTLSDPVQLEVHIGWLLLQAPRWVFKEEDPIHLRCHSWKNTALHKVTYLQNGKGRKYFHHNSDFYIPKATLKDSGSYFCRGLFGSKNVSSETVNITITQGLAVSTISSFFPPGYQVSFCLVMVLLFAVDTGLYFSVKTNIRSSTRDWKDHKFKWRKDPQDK

B1: 1G1-chimeric (llama VHH of 1G1 with human IgG1 CH2 and CH3 domains), bivalent (Fc fusion)
chain: QVQLVESGGGLVQAGDSLRLSCVASGPSFSSYPMGWFRQGPGKERESVAAISSDGRFTYYAASVKGRFTISKDNAKSAAFLQMNSLKPEDTAVYYCAARDSGSGYYSRAQWYDYWGQGTLVTVSS
notes: also called 1G1 chimeric clone; not shown: human IgG1 CH2 and CH3 domains
EC50 (read off the curve) [1]: ~0.08 nM
EC50 (read off the curve) [2]: ~0.1 nM
EC50 (read off the curve); NFAT luciferase reporter (RLU), h-TIGIT/NFAT Jurkat cells with PVR Raji cells and SEE [3]: ~1 nM

Binder: B3
binding result [5]: binds
binding result [6]: binds
binding result [7]: binds
binding result [8]: binds
binding result [9]: binds
binding result [10]: binds
binding result [11]: binds
binding result [12]: binds
binding result [13]: binds
binding result [14]: binds
binding result [15]: binds

B4: 1C12-chimeric (llama VHH of 1C12 with human IgG1 CH2 and CH3 domains), bivalent (Fc fusion)
chain: QVQLVESGGGLVQTGDSLRLSCAASSRIFSRYGMGWFRQAPGKEREFVAAISWNGASTTYTDSVKGRFTISRDSAENTTYLQINSLRPEDTAVYYCAADPWGAVKLGTAEYEYWGQGTQVTVSS
notes: also called 1C12 chimeric parental clone; not shown: human IgG1 CH2 and CH3 domains
EC50 (read off the curve) [1]: ~0.03 nM
EC50 (read off the curve) [2]: ~0.04 nM
EC50 (read off the curve); NFAT luciferase reporter (RLU), h-TIGIT/NFAT Jurkat cells with PVR Raji cells and SEE [3]: ~0.8 nM

Results, then the binder that gave them:

binding result [4]: binds
B2: 1G1-1C12 VHH (VHH)
VHH: QVQLVESGGGVVQPGRSLRLSCAASGPSFSSYPMGWFRQAPGKERESVAAISSDLRFTYYADSVKGRFTISRDNSKNTLYLQMNSLRAEDTAVYYCAARDSGSGYYSRKQWYDYWGQGTLVTVSS
notes: VHH in bacterial supernatant

binding result [16]: binds
binding result [17]: binds
binding result [18]: binds
B5: 2A3-LT-Fc VLPLL (Fc mutations L235V, F243L, R292P, Y300L and P396L) (Fc fusion)
chain: QVQLVESGGGVVQPGRSLRLSCAASGGSFSSYPMGWFRQAPGKERESVAAISSDLRFTYYADSVKGRFTISRDNSKNTLYLQMNSLRAEDTAVYYCAARTSGVGYYSRAQWYDYWGQGTLVTVSSEPKSCDKTHTCPPCPAPELVGGPSVFLLPPKPKDTLMISRTPEVTCVVVDVSHEDPEVKFNWYVDGVEVHNAKTKPPEEQYNSTLRVVSVLTVLHQDWLNGKEYKCKVSNKALPAPIEKTISKAKGQPREPQVYTLPPSREEMTKNQVSLTCLVKGFYPSDIAVEWESNGQPENNYKTTPLVLDSDGSFFLYSKLTVDKSRWQQGNVFSCSVMHEALHNHYTQKSLSLSPGK
notes: also called VLPLL mutant; VPVLL (as printed once)

binding result [17]: binds
EC50 (nM), TIGIT blockade NFAT luciferase reporter assay, Average [19]: 0.97 nM
EC50 (nM), TIGIT blockade NFAT luciferase reporter assay, Exp 1 [19]: 0.67 nM
EC50 (nM), TIGIT blockade NFAT luciferase reporter assay, Exp 2 [19]: 0.92 nM
EC50 (nM), TIGIT blockade NFAT luciferase reporter assay, Exp 3 [19]: 1.32 nM
binding result [18]: binds
EC50 (nM), FcγRIIIA-mediated NFAT luciferase reporter activity, Average [20]: 0.024 nM
EC50 (nM), FcγRIIIA-mediated NFAT luciferase reporter activity, Exp 1 [20]: 0.027 nM
EC50 (nM), FcγRIIIA-mediated NFAT luciferase reporter activity, Exp 2 [20]: 0.0295 nM
EC50 (nM), FcγRIIIA-mediated NFAT luciferase reporter activity, Exp 3 [20]: 0.018 nM
EC50 (nM), FcγRIIIA-mediated NFAT luciferase reporter activity, Exp 4 [20]: 0.02 nM
B6: 2A3-LT-Fc-DLE (Fc mutations S239D, A330L and I332E) (Fc fusion)
chain: QVQLVESGGGVVQPGRSLRLSCAASGGSFSSYPMGWFRQAPGKERESVAAISSDLRFTYYADSVKGRFTISRDNSKNTLYLQMNSLRAEDTAVYYCAARTSGVGYYSRAQWYDYWGQGTLVTVSSEPKSCDKTHTCPPCPAPELLGGPDVFLFPPKPKDTLMISRTPEVTCVVVDVSHEDPEVKFNWYVDGVEVHNAKTKPREEQYNSTYRVVSVLTVLHQDWLNGKEYKCKVSNKALPLPEEKTISKAKGQPREPQVYTLPPSREEMTKNQVSLTCLVKGFYPSDIAVEWESNGQPENNYKTTPPVLDSDGSFFLYSKLTVDKSRWQQGNVFSCSVMHEALHNHYTQKSLSLSPGK
notes: also called DLE mutant
